We go through two molecules from patent US20090175855A1 (Genentech, published 2009).

The target of one experiment is T1, hPD-1-Fc (human, UniProt Q15116 25-167, limits assumed).
T1 construct: Bought (R&D systems); not shown: Fc; not described
As to the kind of experiment: Biacore; hPD-1-Fc amine coupled to a CM5 chip, HVEM-Fc injected at 2 ug/ml and 5 ul/min. In general terms: SPR reads the build-up and loss of mass on a sensor chip optically.

The next experiment has as its target T2, hCTLA4-Fc (human, UniProt P16410 37-162, limits assumed).
T2 construct: Bought (R&D systems); not shown: Fc; not described
T2 sequence (looked up): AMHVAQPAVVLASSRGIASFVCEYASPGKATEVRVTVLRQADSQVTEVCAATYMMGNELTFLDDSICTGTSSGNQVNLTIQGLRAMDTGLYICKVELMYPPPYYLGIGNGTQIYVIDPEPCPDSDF
The experiment can be described thus: Biacore; hCTLA4-Fc amine coupled to a CM5 chip, HVEM-Fc injected at 2 ug/ml and 5 ul/min.

The next experiment has as its target T3, hICOS-Fc (human, UniProt Q9Y6W8 21-141, limits assumed).
T3 construct: Bought (R&D systems); not shown: Fc; not described
T3 sequence (looked up): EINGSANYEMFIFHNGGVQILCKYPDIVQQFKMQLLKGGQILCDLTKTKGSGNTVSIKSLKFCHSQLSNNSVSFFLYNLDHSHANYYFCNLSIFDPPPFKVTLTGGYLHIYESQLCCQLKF
The experiment can be described thus: Biacore; hICOS-Fc amine coupled to a CM5 chip, HVEM-Fc injected at 2 ug/ml and 5 ul/min.

Experiment [1] deals with T4, PRO87299/LIGHT (both expressed on the same cells) (human, UniProt Q7Z6A9 31-289; O43557 1-240).
T4 construct: also called Expressed protein PRO87299/LIGHT
The experiment can be described thus: radioligand binding to cells expressing PRO87299/LIGHT, Scatchard analysis.

Experiment [2] deals with T5, LIGHT expressed on transfected cells (Homo sapiens (Human), UniProt O43557 1-240).
T5 construct: also called Expressed protein LIGHT
The experiment can be described thus: radioligand binding to transfected cells, Scatchard analysis.

In the next experiment the target is T6, PRO87299 on cells (human, UniProt Q7Z6A9 31-289).
T6 construct: Used both for transfected cells and for the native protein on human primary B and CD4+ T cells; also called PRO87299 transfected cells; 293 cells expressing PRO87299
Described as above.

The target in the next experiment is T7, PRO87299(ECD)-Fc (human, UniProt Q7Z6A9 31-155, I-125 radiolabel in the cell binding assays (Table 7); residues not stated).
T7 construct: Extracellular domain (amino acids 1-155) ligated into a plasmid containing a human Fc domain; also called PRO87299-Fc; PRO87299(ECD)-Fc chimera; not shown: human Fc domain
T7 sequence: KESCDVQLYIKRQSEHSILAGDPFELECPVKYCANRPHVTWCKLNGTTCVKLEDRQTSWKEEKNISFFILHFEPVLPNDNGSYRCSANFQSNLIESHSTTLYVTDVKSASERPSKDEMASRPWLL
The experiment can be described thus: Biacore; HVEM-Fc amine coupled to a CM5 chip at 150 RU, PRO87299-Fc 17 nM injected at 5 ul/min for 1200 s, alone and mixed with 25 nM LIGHT.

In the next experiment the target is T8, hCD28-Fc (human, UniProt P10747 19-152, limits assumed).
T8 construct: Bought (R&D systems); not shown: Fc; not described
As to the kind of experiment: Biacore; hCD28-Fc amine coupled to a CM5 chip, HVEM-Fc injected at 2 ug/ml and 5 ul/min.

Experiment [3] concerns the target T9, HVEM expressed on transfected 293 cells (Homo sapiens (Human), UniProt Q92956 39-283).
T9 construct: also called HVEM transfected cells; 293 cells expressing HVEM
T9 sequence: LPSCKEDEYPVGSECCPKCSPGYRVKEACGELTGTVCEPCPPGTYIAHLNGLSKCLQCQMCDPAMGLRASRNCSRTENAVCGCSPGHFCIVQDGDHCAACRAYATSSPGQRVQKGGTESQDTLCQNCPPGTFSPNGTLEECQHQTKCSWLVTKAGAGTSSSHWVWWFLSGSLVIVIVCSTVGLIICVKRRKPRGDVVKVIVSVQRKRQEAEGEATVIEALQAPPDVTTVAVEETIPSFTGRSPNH
The experiment can be described thus: radioligand binding to transfected cells, Scatchard analysis.

T1 sequence (Q15116 25-167 limits assumed): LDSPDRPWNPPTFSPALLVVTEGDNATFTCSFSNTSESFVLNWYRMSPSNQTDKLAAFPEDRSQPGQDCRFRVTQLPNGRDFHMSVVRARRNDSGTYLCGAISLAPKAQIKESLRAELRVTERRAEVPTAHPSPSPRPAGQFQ
T8 sequence (P10747 19-152 limits assumed): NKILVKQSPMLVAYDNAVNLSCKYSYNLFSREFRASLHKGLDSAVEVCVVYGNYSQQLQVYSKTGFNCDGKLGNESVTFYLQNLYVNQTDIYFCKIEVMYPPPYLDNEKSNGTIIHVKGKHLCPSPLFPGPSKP

B1: HVEM-Fc (Fc fusion)
chain: LPSCKEDEYPVGSECCPKCSPGYRVKEACGELTGTVCEPCPPGTYIAHLNGLSKCLQCQMCDPAMGLRASRNCSRTENAVCGCSPGHFCIVQDGDHCAACRAYATSSPGQRVQKGGTESQDTLCQNCPPGTFSPNGTLEECQHQTKCSWLVTKAGAGTSSS
modifications: I-125 radiolabel in the cell binding assays (Table 7); residues not stated
notes: also called I-125-HVEM-Fc; HVEM-Fc fusion protein; not shown: Fc
Regarding B1, the binding result in the experiment with hPD-1-Fc was “no binding (tested: 2 ug/ml)”; in the experiment with hCTLA4-Fc it was “no binding (tested: 2 ug/ml)”; with hICOS-Fc, “no binding (tested: 2 ug/ml)”; with PRO87299(ECD)-Fc, “binds”; with hCD28-Fc, “no binding (tested: 2 ug/ml)”. The Kd (commonly the free concentration of one partner at which half of the binding sites on the other are occupied at equilibrium, for simple one-to-one binding) in [1] was found to be 0.5 nM; in experiment [2], 7 nM; with PRO87299 on cells, 5.5 nM.

B2: LIGHT-FLAG (ligand)
chain: GEMVTRLPDGPAGSWEQLIQERRSHEVNPAAHLTGANSSLTGSGGPLLWETQLGLAFLRGLSYHDGALVVTKAGYYYIYSKVQLGGVGCPLGLASTITHGLYKRTPRYPEELELLVSQQSPCGRATSSSRVWWDSSFLGGVVHLEAGEEVVVRVLDERLVRLRDGTRSYFGAFMV
modifications: I-125 radiolabel; residues not stated
notes: also called I-125-LIGHT-FLAG; not shown: FLAG tag
On to B2, for which the Kd in [3] is 2.5 nM.
